Source: article PMC10464304, “Refined read‐out: The hUHRF1 Tandem‐Tudor domain prefers binding to histone H3 tails containing K4me1 in the context of H3K9me2/3” (Protein Science : A Publication of the Protein Society, 2023)

T1: fluorescently labeled H3 peptide with K9me2 (Homo sapiens)
T1 chain: ARTKQTARKSTGGKAPRKQ

T2: fluorescently labeled H3 peptide with K4me1 and K9me2 (Homo sapiens)
T2 chain: ARTKQTARKSTGGKAPRKQ

T3: fluorescently labeled H3 peptide without modification (Homo sapiens)
T3 chain: ARTKQTARKSTGGKAPRKQ

T4: fluorescently labeled H3 peptide carrying only K4me1 (Homo sapiens)
T4 chain: ARTKQTARKSTGGKAPRKQ

B1: GST-fused Tandem-Tudor domain (TTD) of human UHRF1, residues 126-280, wild type, Q96T88 126-280 (protein)
chain: MWDETELGLYKVNEYVDARDTNMGAWFEAQVVRVTRKAPSRDEPCSSTSRPALEEDVIYHVKYDDYPENGVVQMNSRDVRARARTIIKWQDLEVGQVVMLNYNPDNPKERGFWYDAEISRKRETRTARELYANVVLGDDSLNDCRIIFVDEVFKI
B2: GST-fused Tandem-Tudor domain (TTD) of human UHRF1, residues 126-280, wild type (domain or fragment)
chain: B1 chain

Tests used:
[1] = target: T1, fluorescently labeled H3 peptide with …; experiment: FP; conditions: domain or fragment; chains chain; modification not given; K9me2 (dimethyl-lysine at 9); FITC-labeled
[2] = target: T2, fluorescently labeled H3 peptide with …; experiment: FP; conditions: domain or fragment; chains chain; modification not given; K4me1 (monomethyl-lysine at 4); K9me2 (dimethyl-lysine at 9); FITC-labeled
[3] = target: T3, fluorescently labeled H3 peptide …; experiment: FP; conditions: domain or fragment; chains chain; modification not given; FITC-labeled
[4] = target: T4, fluorescently labeled H3 peptide …; experiment: FP; conditions: domain or fragment; chains chain; modification not given; K4me1 (monomethyl-lysine at 4); FITC-labeled
[5] = target: fluorescently labeled H3 peptide with K4me1 and K9me2; experiment: fluorescence polarisation; fluorescence anisotropy titration; 100 nM FITC-labeled peptide in the cuvette, protein added stepwise; 23°C; 100 mM KCl, 20 mM HEPES pH 7.5, 10% v/v glycerol

Kd [1] [nM] | Kd [2] [nM] | Kd [3] [nM] | Kd [4] [nM] | fold preference over the H3K9me2 peptide [5] [fold] | Binder
640 | 300 | > 9000 | 3640 |  | B1
 |  |  |  | > 2 | B2
